According to PMC1964790, “An ectromelia virus profilin homolog interacts with cellular tropomyosin and viral A-type inclusion protein” (Virology Journal, 2007):

Target: the molecule itself
Experiment: SDS-PAGE with western blot

B1: His-tagged ectromelia virus strain Moscow gene 141 profilin homolog (ECTV-PH) (natural protein)
chain: MAAEWHKIIEDVSKNNKFEDAAIVDYKTKKNVLAAIPNRTFAKIIPGEVIALITNRNILKPRIGQKFFIVYTNSLMDENTYTMELLTGYAPVSPIVIARTHTALIFLMGKPTTSRREVYRTCRDYATNVRATGN
notes: also called ECTV-Moscow 141; His-ECTV-PH; not shown: His6, N-terminal, kept
For B1, the “stoichiometry N” value was 2.
